Measured values reported in article PMC10786891, “Massively parallel profiling of RNA-targeting CRISPR-Cas13d”.
Residue numbers refer to the chain shown, from its start. Numbers in names are those of the source.

T1: EsCas13d, nuclease-dead (Eubacterium siraeum, UniProt B0MS50, R295A;H300A;R849A;H854A)
T1 sequence: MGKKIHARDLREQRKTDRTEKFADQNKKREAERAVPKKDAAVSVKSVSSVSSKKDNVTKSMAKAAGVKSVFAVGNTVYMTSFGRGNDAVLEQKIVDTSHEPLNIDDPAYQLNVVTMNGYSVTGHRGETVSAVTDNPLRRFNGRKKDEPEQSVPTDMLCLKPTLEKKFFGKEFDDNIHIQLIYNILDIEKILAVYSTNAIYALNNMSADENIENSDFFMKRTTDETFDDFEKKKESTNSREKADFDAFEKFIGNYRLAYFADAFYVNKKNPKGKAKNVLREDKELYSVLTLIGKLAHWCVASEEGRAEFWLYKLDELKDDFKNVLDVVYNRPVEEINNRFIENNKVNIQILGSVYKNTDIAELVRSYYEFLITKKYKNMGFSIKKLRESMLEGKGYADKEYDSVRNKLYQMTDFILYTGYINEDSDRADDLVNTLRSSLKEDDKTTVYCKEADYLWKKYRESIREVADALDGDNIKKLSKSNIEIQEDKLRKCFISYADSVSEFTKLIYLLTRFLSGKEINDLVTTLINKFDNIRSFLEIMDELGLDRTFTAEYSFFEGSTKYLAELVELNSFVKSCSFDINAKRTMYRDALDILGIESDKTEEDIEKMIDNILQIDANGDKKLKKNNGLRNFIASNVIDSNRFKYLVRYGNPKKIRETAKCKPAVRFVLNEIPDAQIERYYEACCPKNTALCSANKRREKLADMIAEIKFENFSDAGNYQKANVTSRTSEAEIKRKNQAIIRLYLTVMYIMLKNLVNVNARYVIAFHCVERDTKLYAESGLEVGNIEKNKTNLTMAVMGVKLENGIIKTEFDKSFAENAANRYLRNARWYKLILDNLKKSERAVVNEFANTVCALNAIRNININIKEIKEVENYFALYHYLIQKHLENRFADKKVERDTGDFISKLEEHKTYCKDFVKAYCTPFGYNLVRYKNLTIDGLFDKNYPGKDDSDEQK

B1: target 1 insC 3' of 20,insA 3' of 17 (mixed)
RNA 1: CACCCGUGCAAAAAUGCAGGGGUCUAAAACUGAGCGGAUAACCUCUCUAUGG
RNA 2: GGGAAUGGAUCCACAUCUACGAAUUCGUACCACUAGAAGAGGUUAUCCGCUCACCGAGAUCGGAAGAGCACACGU
B2: target 1 insG 3' of 19,insC 3' of 3 (mixed)
RNA 1: B1 RNA 1
RNA 2: GGGAAUGGAUCCACAUCUACGAAUUCGUACCAUGAGAGAGGUUAUCCGCUCCACCGAGAUCGGAAGAGCACACGU
B3: target 1 insA 3' of 15,insG 3' of 14 (mixed)
RNA 1: B1 RNA 1
RNA 2: B1 RNA 2 with C33U, U34A, A35G, G36A, A37G, G39A, A40G
B4: target 1 insU 3' of 18,insA 3' of 4 (mixed)
RNA 1: B1 RNA 1
RNA 2: B2 RNA 2 with G34A, A35U, U50A, C51U
B5: target 1 C2A,U8C (mixed)
RNA 1: B1 RNA 1
RNA 2: GGGAAUGGAUCCACAUCUACGAAUUCGUACCAUAGAGAGGUUACCCGCUAACCGAGAUCGGAAGAGCACACGU
B6: target 1 insU 3' of 14,insG 3' of 3 (mixed)
RNA 1: B1 RNA 1
RNA 2: B2 RNA 2 with G34A, A35G, G36A, A37G, G38A, A39U, C51G
B7: target 1 A1U,G5U (mixed)
RNA 1: B1 RNA 1
RNA 2: B5 RNA 2 with C44U, G47U, A50C, A51U
B8: target 1 C6A,A14U (mixed)
RNA 1: B1 RNA 1
RNA 2: B5 RNA 2 with A38U, C44U, C46A, A50C
B9: target 1 insU 3' of 14,insA 3' of 7 (mixed)
RNA 1: B1 RNA 1
RNA 2: GGGAAUGGAUCCACAUCUACGAAUUCGUACCAUAGAGAUGGUUAUCACGCUCACCGAGAUCGGAAGAGCACACGU
B10: target 1 C7A,C21U (mixed)
RNA 1: B1 RNA 1
RNA 2: B5 RNA 2 with C31U, C44U, C45A, A50C
B11: target 1 C6G,A20U (mixed)
RNA 1: B1 RNA 1
RNA 2: B5 RNA 2 with A32U, C44U, C46G, A50C
B12: target 1 insA 3' of 22,insC 3' of 9 (mixed)
RNA 1: B1 RNA 1
RNA 2: B1 RNA 2 with C31A, A32C, C33A, A38G, G39A, A40G, G42U, U44A, A45C
B13: target 1 insC 3' of 17,insA 3' of 3 (mixed)
RNA 1: B1 RNA 1
RNA 2: B2 RNA 2 with G34A, A35G, G36C, C51A
B14: target 1 del5,del15 (mixed)
RNA 1: B1 RNA 1
RNA 2: GGGAAUGGAUCCACAUCUACGAAUUCGUACCAUAGAAGGUUAUCCCUCACCGAGAUCGGAAGAGCACACGU
B15: target 1 C2U,U19G (mixed)
RNA 1: B1 RNA 1
RNA 2: B5 RNA 2 with U33G, C44U, A50U
B16: target 1 A1C,G5U (mixed)
RNA 1: B1 RNA 1
RNA 2: B5 RNA 2 with C44U, G47U, A50C, A51C
B17: target 1 insU 3' of 20,insA 3' of 5 (mixed)
RNA 1: B1 RNA 1
RNA 2: B2 RNA 2 with G34U, C49A, U50C, C51U
B18: target 1 C7U,G17U (mixed)
RNA 1: B1 RNA 1
RNA 2: B5 RNA 2 with G35U, C44U, C45U, A50C
B19: target 1 U10C,U19A (mixed)
RNA 1: B1 RNA 1
RNA 2: B5 RNA 2 with U33A, U42C, C44U, A50C
B20: target 1 insC 3' of 20,insU 3' of 14 (mixed)
RNA 1: B1 RNA 1
RNA 2: B1 RNA 2 with A38G, G39A, A40U
B21: target 1 G5C,U19C (mixed)
RNA 1: B1 RNA 1
RNA 2: B5 RNA 2 with U33C, C44U, G47C, A50C
B22: target 1 insG 3' of 22,insA 3' of 19 (mixed)
RNA 1: B1 RNA 1
RNA 2: B1 RNA 2 with C31G, A32C, C33A, G36A, A37G
B23: target 1 U10G,U11C (mixed)
RNA 1: B1 RNA 1
RNA 2: B5 RNA 2 with U41C, U42G, C44U, A50C
B24: target 1 insC 3' of 22,insC 3' of 18 (mixed)
RNA 1: B1 RNA 1
RNA 2: B1 RNA 2 with A32C, C33A, G36C, A37G
B25: target 1 insC 3' of 16,insG 3' of 3 (mixed)
RNA 1: B1 RNA 1
RNA 2: B2 RNA 2 with G34A, A35G, G36A, A37C, C51G
B26: target 1 C6A,A14C (mixed)
RNA 1: B1 RNA 1
RNA 2: B5 RNA 2 with A38C, C44U, C46A, A50C
B27: target 1 insC 3' of 11,insG 3' of 8 (mixed)
RNA 1: B1 RNA 1
RNA 2: B9 RNA 2 with U39G, G41U, U42C, C46G, A47C
B28: target 1 insA 3' of 8,insU 3' of 5 (mixed)
RNA 1: B1 RNA 1
RNA 2: B9 RNA 2 with U39G, G41U, U43A, A44U, U45A, A47C, C48G, G49U
B29: target 1 insA 3' of 3,insU 3' of 1 (mixed)
RNA 1: B1 RNA 1
RNA 2: GGGAAUGGAUCCACAUCUACGAAUUCGUACCAUAGAGAGGUUAUCCGCUACAUCCGAGAUCGGAAGAGCACACGU
B30: target 1 insC 3' of 14,insA 3' of 8 (mixed)
RNA 1: B1 RNA 1
RNA 2: B9 RNA 2 with U39C, C46A, A47C
B31: target 1 insG 3' of 18,insA 3' of 13 (mixed)
RNA 1: B1 RNA 1
RNA 2: B1 RNA 2 with C33U, U34A, A35G, A38G, G39A, A40G, G41A
B32: target 1 insG 3' of 19,insA 3' of 19 (mixed)
RNA 1: B1 RNA 1
RNA 2: B1 RNA 2 with C33U, U34G, G36A, A37G
B33: target 1 G17U,U19A (mixed)
RNA 1: B1 RNA 1
RNA 2: B5 RNA 2 with U33A, G35U, C44U, A50C
B34: target 1 del16,del19 (mixed)
RNA 1: B1 RNA 1
RNA 2: B14 RNA 2 with U33A, A34G, A37G, G39U, U41A, A42U, U43C, C45G
B35: target 1 insC 3' of 13,insG 3' of 2 (mixed)
RNA 1: B1 RNA 1
RNA 2: B9 RNA 2 with U39G, G40C, A47C, C48G, G49C, C50U, U51C, C52G

Molecular target: T1, EsCas13d, nuclease-dead
Experiment: crRNA (strand 1, pre-loaded); Mg2+; 40 mM Tris-HCl pH 7.5, 150 mM NaCl, 6 mM MgCl2, 1 mM DTT, 0.1% Tween-20, 0.2 mg/ml BSA; 25 C; 10 min per concentration, then washed
Details: tags: His6-TwinStrep-SUMO cleaved; N-terminal SNAP kept (SNAP-Surface 488); label: 3' end held by stalled T7 RNA polymerase

Binder | Kd [nM]
B1 | 8.5 ± 0.8
B2 | 62 ± 8
B3 | 10.6 ± 1.2
B4 | 20.9 ± 1.7
B5 | 5.2 ± 0.4
B6 | 34 ± 4
B7 | 73 ± 11
B8 | 54 ± 9
B9 | 32.2 ± 3
B10 | 6.56 ± 0.31
B11 | 40.5 ± 2.5
B12 | 14.4 ± 0.6
B13 | 53 ± 8
B14 | 27.3 ± 2.6
B15 | 52 ± 4
B16 | 33 ± 4
B17 | 12.2 ± 0.9
B18 | 19.7 ± 1.8

Binder | Kd [nM]
B19 | 100 ± 40
B20 | 5.5 ± 0.8
B21 | 32 ± 6
B22 | 63 ± 10
B23 | 14.1 ± 0.6
B24 | 41 ± 16
B25 | 50 ± 8
B26 | 11.7 ± 0.5
B27 | 64 ± 8
B28 | 22 ± 1.8
B29 | 9.2 ± 0.5
B30 | 49 ± 5
B31 | 46 ± 6
B32 | 50 ± 7
B33 | 36.8 ± 2.9
B34 | 73 ± 20
B35 | 11.4 ± 0.5
